{
  "source": "paper PMC10815899",
  "about": "“Glyceraldehyde 3-Phosphate Dehydrogenase on the Surface of Candida albicans and Nakaseomyces glabratus Cells—A Moonlighting Protein That Binds Human Vitronectin and Plasminogen and Can Adsorb to Pathogenic Fungal Cells via Major Adhesins Als3 and Epa6” (International Journal of Molecular Sciences, 2024)",
  "binders": {"B1": {"name": "recombinant Candida albicans glyceraldehyde 3-phosphate dehydrogenase (enzyme, C. albicans, UniProt Q5ADM7 1-335, looked up)", "chain": "MAIKIGINGFGRIGRLVLRVALGRKDIEVVAVNDPFIAPDYAAYMFKYDSTHGRYKGEVTASGDDLVIDGHKIKVFQERDPANIPWGKSGVDYVIESTGVFTKLEGAQKHIDAGAKKVIITAPSADAPMFVVGVNEDKYTPDLKIISNASCTTNCLAPLAKVVNDTFGIEEGLMTTVHSITATQKTVDGPSHKDWRGGRTASGNIIPSSTGAAKAVGKVIPELNGKLTGMSLRVPTTDVSVVDLTVRLKKAASYEEIAQAIKKASEGPLKGVLGYTEDAVVSTDFLGSSYSSIFDEKAGILLSPTFVKLISWYDNEYGYSTRVVDLLEHVAKASA", "modifications": "biotin (NHS-biotin) in the microplate and yeast-cell binding assays; Alexa Fluor 647 in flow cytometry", "notes": "no tag (pLATE11); By gel filtration predominantly a tetramer, with marked proportions of dimers and monomers; The forward primer carries ATGATG (the vector adapter's ATG and the gene's own), so an extra N-terminal Met may be present; also called CaGAPDH; GAPDH; source: E. coli Rosetta 2 (DE3), pLATE11, purified (ammonium sulfate fractionation, ResourceQ)"}},
  "key": {"[1]": {"molecular_target": "T1, agglutinin-like sequence protein 3 (full-length Als3) on S. cerevisiae cells (C. albicans, UniProt Q59L12 18-1134)", "T1 construct": "source: S. cerevisiae, overexpressed and surface-presented, on cells", "T1 sequence": "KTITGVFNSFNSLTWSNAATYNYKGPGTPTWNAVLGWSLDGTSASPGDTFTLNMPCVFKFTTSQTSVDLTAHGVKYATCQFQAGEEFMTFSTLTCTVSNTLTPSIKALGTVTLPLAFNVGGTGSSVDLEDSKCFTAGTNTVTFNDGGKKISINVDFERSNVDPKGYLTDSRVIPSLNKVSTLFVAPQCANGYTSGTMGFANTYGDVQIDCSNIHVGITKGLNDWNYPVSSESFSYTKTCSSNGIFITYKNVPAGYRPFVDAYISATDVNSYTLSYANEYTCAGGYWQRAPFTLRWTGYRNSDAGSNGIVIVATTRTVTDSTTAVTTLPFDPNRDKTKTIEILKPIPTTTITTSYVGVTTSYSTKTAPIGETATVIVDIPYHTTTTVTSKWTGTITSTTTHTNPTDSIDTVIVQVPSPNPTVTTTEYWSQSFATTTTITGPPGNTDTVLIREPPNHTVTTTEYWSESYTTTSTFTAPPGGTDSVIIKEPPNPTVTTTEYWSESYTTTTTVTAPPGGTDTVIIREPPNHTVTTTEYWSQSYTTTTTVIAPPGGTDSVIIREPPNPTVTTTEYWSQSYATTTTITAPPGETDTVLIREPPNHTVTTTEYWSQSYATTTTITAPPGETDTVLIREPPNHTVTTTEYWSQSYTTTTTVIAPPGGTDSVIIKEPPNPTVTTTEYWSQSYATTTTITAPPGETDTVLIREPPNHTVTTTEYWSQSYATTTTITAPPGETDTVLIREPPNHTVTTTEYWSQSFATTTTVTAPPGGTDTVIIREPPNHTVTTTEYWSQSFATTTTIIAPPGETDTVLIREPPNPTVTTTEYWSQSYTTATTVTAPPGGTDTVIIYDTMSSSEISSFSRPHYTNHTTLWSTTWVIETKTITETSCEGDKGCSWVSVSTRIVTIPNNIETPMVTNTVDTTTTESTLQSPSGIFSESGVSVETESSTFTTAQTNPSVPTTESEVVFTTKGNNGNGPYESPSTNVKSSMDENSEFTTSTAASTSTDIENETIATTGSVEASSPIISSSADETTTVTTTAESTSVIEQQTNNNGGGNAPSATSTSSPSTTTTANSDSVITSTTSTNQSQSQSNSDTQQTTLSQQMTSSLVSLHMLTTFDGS", "assay": "whole-cell binding assay (biotin-labeled protein, SA-HRP/TMB); S. cerevisiae cells presenting the adhesin (3 × 10^7 cells per tube); biotin-labeled CaGAPDH 0–400 nM, 1 h at 37 °C; one-site specific binding model, estimated dissociation constants", "details": "one partner purified"}, "[2]": {"molecular_target": "T2, Eap1 (epithelial adhesin protein 1) on S. cerevisiae cells (C. albicans, UniProt G1UBC2 19-632)", "T2 construct": "Eap1 adhesin of C. albicans presented on the surface of S. cerevisiae; source: S. cerevisiae, overexpressed and surface-presented, on cells", "T2 sequence": "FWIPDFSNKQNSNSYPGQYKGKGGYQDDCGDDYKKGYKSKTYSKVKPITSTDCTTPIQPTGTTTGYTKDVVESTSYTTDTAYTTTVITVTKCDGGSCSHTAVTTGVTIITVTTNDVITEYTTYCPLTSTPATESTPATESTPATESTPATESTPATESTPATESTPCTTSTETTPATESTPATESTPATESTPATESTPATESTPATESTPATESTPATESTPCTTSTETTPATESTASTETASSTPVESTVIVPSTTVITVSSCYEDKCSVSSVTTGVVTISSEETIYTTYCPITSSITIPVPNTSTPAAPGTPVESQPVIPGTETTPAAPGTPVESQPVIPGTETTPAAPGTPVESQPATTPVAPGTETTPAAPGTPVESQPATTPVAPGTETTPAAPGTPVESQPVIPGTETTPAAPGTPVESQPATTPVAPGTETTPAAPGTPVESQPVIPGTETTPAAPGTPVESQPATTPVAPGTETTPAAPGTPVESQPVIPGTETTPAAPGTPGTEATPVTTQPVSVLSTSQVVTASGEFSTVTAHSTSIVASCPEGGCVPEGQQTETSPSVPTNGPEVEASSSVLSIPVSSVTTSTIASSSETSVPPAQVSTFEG", "assay": "whole-cell binding assay (biotin-labeled protein, SA-HRP/TMB); S. cerevisiae cells presenting the adhesin (3 × 10^7 cells per tube); biotin-labeled CaGAPDH 0–400 nM, 1 h at 37 °C; one-site specific binding model, estimated dissociation constants", "details": "one partner purified"}, "[3]": {"molecular_target": "T3, Hwp1 (hyphal wall protein 1) on S. cerevisiae cells (C. albicans, UniProt P46593 28-613)", "T3 construct": "Hyphal wall protein 1 of C. albicans presented on the surface of S. cerevisiae; source: S. cerevisiae, overexpressed and surface-presented, on cells", "T3 sequence": "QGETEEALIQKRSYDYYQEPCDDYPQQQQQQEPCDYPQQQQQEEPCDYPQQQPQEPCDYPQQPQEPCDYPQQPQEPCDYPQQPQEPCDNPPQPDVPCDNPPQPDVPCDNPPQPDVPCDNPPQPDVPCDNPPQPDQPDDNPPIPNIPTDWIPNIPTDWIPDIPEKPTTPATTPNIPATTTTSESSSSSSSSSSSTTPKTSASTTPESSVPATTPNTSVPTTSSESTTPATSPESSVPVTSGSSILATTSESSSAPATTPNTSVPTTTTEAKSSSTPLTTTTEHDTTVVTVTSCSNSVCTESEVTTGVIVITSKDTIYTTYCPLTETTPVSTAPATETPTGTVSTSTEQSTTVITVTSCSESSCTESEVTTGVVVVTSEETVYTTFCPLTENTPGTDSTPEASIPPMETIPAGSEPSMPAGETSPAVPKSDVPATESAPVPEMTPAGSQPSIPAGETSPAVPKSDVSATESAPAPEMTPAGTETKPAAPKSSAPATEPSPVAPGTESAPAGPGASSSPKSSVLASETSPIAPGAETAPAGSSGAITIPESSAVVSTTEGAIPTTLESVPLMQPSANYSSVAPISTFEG", "assay": "whole-cell binding assay (biotin-labeled protein, SA-HRP/TMB); S. cerevisiae cells presenting the adhesin (3 × 10^7 cells per tube); biotin-labeled CaGAPDH 0–400 nM, 1 h at 37 °C; one-site specific binding model, estimated dissociation constants", "details": "one partner purified"}, "[4]": {"molecular_target": "the molecule itself", "assay": "SEC; Superdex 200 HR 10/50, calibrated with molecular mass standards, 0.5 mL/min; buffer 20 mM Tris-HCl pH 6.7 (methods) or 50 mM NaH2PO4, 150 mM NaCl pH 7.0"}},
  "note": "“And” between values parts separate entries of the source, which are not always exact repeats. Equal entries are not always repeated.",
  "data": [
    {"binder": "B1", "values": [
      {"measurement": "Kd", "setting": "[1]", "result": 95.9, "unit": "nM"},
      {"measurement": "Kd", "setting": "[2]", "result": 1250, "unit": "nM"},
      {"measurement": "Kd", "setting": "[3]", "result": 715, "unit": "nM"},
      {"measurement": "stoichiometry N", "setting": "[4]", "result": "4 and 2"}
    ]}
  ]
}
